# Results published in patent US20090298772A1 (UNIVERSITY OF CHICAGO, published 2009).
# T1: menin (endogenous, 293 cell lysate) (UniProt O00255 1-610)
# T1 construct: Endogenous protein of transfected 293 cells (a human cell line); Co-immunoprecipitated with FLAG-MLL 1-330; also called endogenous menin; product of the MEN1 tumor suppressor gene
# T1 sequence (looked up): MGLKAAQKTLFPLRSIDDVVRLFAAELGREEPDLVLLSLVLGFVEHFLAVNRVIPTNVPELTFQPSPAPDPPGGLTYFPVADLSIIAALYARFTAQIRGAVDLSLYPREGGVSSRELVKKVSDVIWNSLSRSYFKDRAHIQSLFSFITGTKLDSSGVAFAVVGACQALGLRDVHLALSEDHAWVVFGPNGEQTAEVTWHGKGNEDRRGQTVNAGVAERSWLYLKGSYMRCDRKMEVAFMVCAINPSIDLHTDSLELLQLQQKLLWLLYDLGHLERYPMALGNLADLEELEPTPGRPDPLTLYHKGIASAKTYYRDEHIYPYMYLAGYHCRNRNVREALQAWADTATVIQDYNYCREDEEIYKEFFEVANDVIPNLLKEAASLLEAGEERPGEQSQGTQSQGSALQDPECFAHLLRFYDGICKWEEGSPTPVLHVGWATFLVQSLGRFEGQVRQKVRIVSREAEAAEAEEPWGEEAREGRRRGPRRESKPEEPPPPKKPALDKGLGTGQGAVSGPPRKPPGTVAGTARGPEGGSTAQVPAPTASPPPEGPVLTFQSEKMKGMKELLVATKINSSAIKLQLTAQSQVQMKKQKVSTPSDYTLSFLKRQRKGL
# B1: MLL 5-14 peptide (peptide)
# peptide: CRWRFPARPG
# notes: Synthetic peptide; also called MLL peptide 5-14
# Molecular target: T1, menin (endogenous, 293 cell lysate)
# Test: competition with FLAG-MLL 1-330 for endogenous menin, co-IP / Western blot (FIG. 1); binding to menin shown only by blocking
# Text: Cell lysates were immunoprecipitated with anti-FLAG antibody (Sigma), separated by SDS-PAGE and blotted with an anti-menin antibody (Bethyl Laboratories Inc. or Santa-Cruz).
row,Binder,binding result
1,MAHSCRWRFPARPGTTGGGGGGGRRG (Synthetic peptide) [MLL peptide 1-26],binds
2,MAHSCRWRFPARPGTTGG (Synthetic peptide) [MLL peptide 1-18],binds
3,AHSCRWRFPARPGTTGG (Synthetic peptide) [MLL peptide 2-18],binds
4,HSCRWRFPARPGTTGG (Synthetic peptide) [MLL peptide 3-18],binds
5,MAHSCRWRFPARPGTTGGGGGGGRRGLGGG (Synthetic peptide) [MLL peptide 1-30],binds
6,MAHSCRWRFPARP (Synthetic peptide) [MLL peptide 1-13],binds
7,B1,binds
8,SCRWRFPARPGTTGG (Synthetic peptide) [MLL peptide 4-18],binds
9,MAHSCRWRFPARPGTTGGGGGG (Synthetic peptide) [MLL peptide 1-22],binds
10,AHSCRWRFPARPG (Synthetic peptide) [MLL peptide 2-14],binds
11,CRWRFPARPGTTGG (Synthetic peptide) [MLL peptide 5-18],binds
12,SCRWRFPARPG (Synthetic peptide) [MLL peptide 4-14],binds
13,MAHSCRWRFPARPG (Synthetic peptide) [MLL peptide 1-14],binds
14,HSCRWRFPARPG (Synthetic peptide) [MLL peptide 3-14],binds
